Assay: soluble on expression in E. coli; label from the status in PepcDB or PDB records

| Sequence | soluble on expression in E. coli |
| --- | --- |
| AADALVRVDGFERTSSSNTVTDIVPGVVLNLTKAAEGTKVTLGVTADTSGLKGNLTAFAAAYNTANTLLKNSSSYNAETRTASALTGDSLVRGLQQQLRGQVSGSISELKALGLTIDKDGVMSFDGGKFDTAIAADGGAAAEALGKDSKFGSGLTKLLDANVNVNNGTLTLRSDSLNKQIKGFEADLDNLDARMEKLTDRYTAQFTAMETMISKMQGATGSLSSLLAI | not soluble |
| AAIGSCSKEYRVLLGQLQKQTDLMQDTSRLLDPYIRIQGLDVPKLREHCRERPGAFPSEETLRGLGRRGFLQTLNATLGCVLHRLADLEQRLPKAQDLERSGLNIEDLEKLQMARPNILGLRNNIYCMAQLLDNSDTAEPTKAGRGASQPPTPTPASDAFQRKLEGCRFLHGYHRFMHSVGRVFSKW | soluble |
| AALVSISVSPTNSTVAKGLQENFKATGIFTDNSNSDITDQVTWDSSNTDILSISNASDSHGLASTLNQGNVKVTASIGGIQGSTDFKVTQAALTSIEVSPTRTSIAKGLTQKFTAIGIFTDNSKKDITDQVTWNSSSAIVSVSNLDNNKGLGKTNSVGNTTITATLGKVSGNTWFTVVPAVLTSIQINPVNPSLAKGLTQKFTATGIYSDNSNKDITSAVTWFSSDSSIATISNAQKNQGNAYGAATGATDIKATFGKVSSPVSTLSVTAAKLVEIQITPAAASKAKGLTERFKATGIFTDNSNSDITNQVTWNSSNTDIAEIKNTSGSKGITNTLTPGSSEISAALGSIKSSKVILKV | not soluble |
| AAMTLASQIATQLLDIKAVYLKPEDPFTWASGIKSPIYTDNRVTLSYPKTRDLIENGFVETIKAHFPEVEVIAGTATAGIPHGAIIADKMTLPFAYIRSKPKDHGAGNQIEGRVLKGQKMVIIEDLISTGGSVLDAAAAASREGADVLGVVAIFTYELPKASQNFKEAGIKLITLSNYTELIAVAKLQGYITNDGLHLLKKFKEDQVNWQQ | soluble |
| AAQAEREELAAGRMPGGGPQGAPAAAGGGGVSHRAGSRDCLPPAACFRRRRLARRPGYMRSSTGPGIGFLSPAVGTLFRFPGGVSGEESHHSESRARQCGLDSRGLLVRSPVSKSAAAPTVTSVRGTSAHFGIQLRGGTRLPDRLSWPCGPGSAGWQQEFAAMDSSETLDASWEAACSDGARRVRAAGSLPSAELSSNSCSPGCGPEVPPTPPGSHSAFTSSFSFIRLSLGSAGERGEAEGCPPSREAESHCQSPQEMGAKAASLDGPHEDPRCLSQPFSLLATRVSADLAQAARNSSRPERDMHSLPDMDPGSSSSLDPSLAGCGGDGSSGSGDAHSWDTLLRKWEPVLRDCLLRNRRQMEVISLRLKLQKLQEDAVENDDYDKAETLQQRLEDLEQEKISLHFQLPSRQPALSSFLGHLAAQVQAALRRGATQQASGDDTHTPLRMEPRLLEPTAQDSLHVSITRRDWLLQEKQQLQKEIEALQARMFVLEAKDQQLRREIEEQEQQLQWQGCDLTPLVGQLSLGQLQEVSKALQDTLASAGQIPFHAEPPETIRSLQERIKSLNLSLKEITTKVCMSEKFCSTLRKKVNDIETQLPALLEAKMHAISGNHFWTAKDLTEEIRSLTSEREGLEGLLSKLLVLSSRNVKKLGSVKEDYNRLRREVEHQETAYETSVKENTMKYMETLKNKLCSCKCPLLGKVWEADLEACRLLIQSLQLQEARGSLSVEDERQMDDLEGAAPPIPPRLHSEDKRKTPLKESYILSAELGEKCEDIGKKLLYLEDQLHTAIHSHDEDLIQSLRRELQMVKETLQAMILQLQPAKEAGEREAAASCMTAGVHEAQA | soluble |
| AAQTTAAVEDMSMGAEDAPVTIVEYASFTCPHCANFEKEVLTPLKRDYIDTGKVRFTFREVYFDRYGLWAAMVARCGGEMRYFGIADLIFEQQKEWVTNDPAQVATNLRKIGKTAGLDDAALDACMNDQAKAEAMVAAFQKNSQADDITATPSLIINGTKHSNMSYEELKKIIDAELAK | not soluble |
| AARSECKRSHKFVPGAWLAGEGVDVTSLRRSGSFPVDTQRFLRPDGTCTLCENALQEGTLQRLPLALTNWRAQGSGCQRHVTRAKVSSTEAVARDAARSIRNDWKVGLDVTPKPTSNVHVSVAGSHSQAANFAAQKTHQDQYSFSTDTVECRFYSFHVVHTPPLHPDFKRALGDLPHHFNASTQPAYLRLISNYGTHFIRAVELGGRISALTALRTCELALEGLTDNEVEDCLTVEAQVNIGIHGSISAEAKACEEKKKKHKMTASFHQTYRERHSEVVGGHHTSINDLLFGIQAGPEQYSAWVNSLPGSPGLVDYTLEPLHVLLDSQDPRREALRRALSQYLTDRARWRDCSRPCPPGRQKSPRDPCQCVCHGSAVTTQDCCPRQRGLAQLEVTFIQAWGLWGDWFTATDAYVKLFFGGQELRTSTVWDNNNPIWSVRLDFGDVLLATGGPLRLQVWDQDSGRDDDLLGTCDQAPKSGSHEVRCNLNHGHLKFRYHARCLPHLGGGTCLDYVPQMLLGEPPGNRSGAVW | soluble |
| ADERLQFTATTLSGAPFDGASLQGKPAVLWFWTPWCPFCNAEAPSLSQVAAANPAVTFVGIATRADVGAMQSFVSKYNLNFTNLNDADGVIWARYNVPWQPAFVFYRADGTSTFVNNPTAAMSQDELSGRVAALTS | soluble |
| ADGQQGAPLNSPNTYDVTTWRIKAHPEVTAQSDIGAVINDIIADIKQRQTSPDARPGAAIIIPPGDYDLHTQVVVDVSYLTIAGFGHGFFSRSILDNSNPTGWQNLQPGASHIRVLTSPSAPQAFLVKRAGDPRLSGIVFRDFCLDGVGFTPGKNSYHNGKTGIEVASDNDSFHITGMGFVYLEHALIVRGADALRVNDNMIAECGNCVELTGAGQATIVSGNHMGAGPDGVTLLAENHEGLLVTGNNLFPRGRSLIEFTGCNRCSVTSNRLQGFYPGMLRLLNGCKENLITANHIRRTNEGYPPFIGRGNGLDDLYGVVHIAGDNNLISDNLFAYNVPPANIAPAGAQPTQILIAGGDANVVALNHVVSDVASQHVVLDASTTHSKVLDSGTASQITSYSSDTAIRPTP | soluble |
| ADINHGENVFTANCSACHAGGNNVIMPEKTLQKDALSTNQMNSVGAITYQVTNGKNAMPAFGGRLSDDDIEDVASFVLSQSEKSWN | soluble |
| ADYVLAIDQGTTSSRAIVFDHSGEIYSTGQLEHDQIFPRAGWVEHNPEQIWNNVREVVGLALTRGNLTHEDIAAVGITNQRETAVVWDKTTGKPVYNAIVWQDTRTQKIVDELGGDEGAEKYKSIVGLPLATYFSGPKIKWILDNVEGAREKAEKGDLLFGNTDTWVLWNMTGGTEGGVHVTDVTNASRTMLMDLDTLSWREDIAADMGIPLSMLPDIRSSSEVYGHGRPRGLVPGVPIAGILGDQQAATFGQACFEVGQAKNTYGTGNFLLLNTGTEKVMSKNGLLTTVCYKIGDAPAVYALEGSIAVTGSLVQWLRDNLGMFEDAPDVEWLAGKVQDNGGAYFVPAFSGLFAPYWRPDARGALVGLTRYVNRNHIARAALEATAFQSREVVDAMNADSGVDLTELRVDGGMVANELLMQFQADQLGVDVVRPKVAETTALGAAYAAGIAVGFWKGEQDVIDNWAEDKRWSPSMESGERERLYRNWKKAVTKTMEWVDEDVEQ | soluble |
| AEAAAAQAPAAGPGQMSFTFASPTQVFFNSANVRQVDVPTQTGAFGILAAHVPTLQVLRPGLVVVHAEDGTTSKYFVSSGSVTVNADSSVQLLAEEAVTLDMLDLGAAKANLEKAQSELLGAADEATRAEIQIRIEANEALVKALE | soluble |
| AEGGFLEDAKTDLVLRNYYFNRDFRDHDAGKSLVDEWAQGFILKFSSGYTPGTVGVGLDAIGLFGVKLNSGRGTSNSELLPLHDDGRAADNYGRVGVAAKLRVSASELKIGEMLPDIPLLRYDDGRLLPQTFRGFAVVSRELPGLALQAGRFDAVSLRNSADMQDLSAWSAPTQKSDGFNYAGAEYRFNRERTQLGLWHGQLEDVYRQSYANLLHKQRVGDWTLGANLGLFVDRDDGAARAGEIDSHTVYGLFSAGIGLHTFYLGLQKVGGDSGWQSVYGSSGRSMGNDMFNGNFTNADERSWQVRYDYDFVGLGWPGLIGMVRYGHGSNATTKAGSGGKEWERDVELGYTVQSGPLARLNVRLNHASNRRSFNSDFDQTRLVVSYPLSW | soluble |
| AENNNLKLASTMEGRVEQLAEQRQVIEAGGGERRVEKQHSQGKQTARERLNNLLDPHSFDEVGAFRKHRTTLFGMDKAVVPADGVVTGRGTILGRPVHAASQDFTVMGGSAGETQSTKVVETMEQALLTGTPFLFFYDSGGARIQEGIDSLSGYGKMFFANVKLSGVVPQIAIIAGPCAGGASYSPALTDFIIMTKKAHMFITGPQVIKSVTGEDVTADELGGAEAHMAISGNIHFVAEDDDAAELIAKKLLSFLPQNNTEEASFVNPNNDVSPNTELRDIVPIDGKKGYDVRDVIAKIVDWGDYLEVKAGYATNLVTAFARVNGRSVGIVANQPSVMSGCLDINASDKAAEFVNFCDSFNIPLVQLVDVPGFLPGVQQEYGGIIRHGAKMLYAYSEATVPKITVVLRKAYGGSYLAMCNRDLGADAVYAWPSAEIAVMGAEGAANVIFRKEIKAADDPDAMRAEKIEEYQNAFNTPYVAAARGQVDDVIDPADTRRKIASALEMYATKRQTRPAKKHGNFPC | soluble |
| AEQKTLHIYNWSDYIAPDTVANFEKETGIKVVYDVFDSNEVLEGKLMAGSTGFDLVVPSASFLERQLTAGVFQPLDKSKLPEWKNLDPELLKLVAKHDPDNKFAMPYMWATTGIGYNVDKVKAVLGENAPVDSWDLILKPENLEKLKSCGVSFLDAPEEVFATVLNYLGKDPNSTKADDYTGPATDLLLKLRPNIRYFHSSQYINDLANGDICVAIGWAGDVWQASNRAKEAKNGVNVSFSIPKEGAMAFFDVFAMPADAKNKDEAYQFLNYLLRPDVVAHISDHVFYANANKAATPLVSAEVRENPGIYPPADVRAKLFTLKVQDPKIDRVRTRAWTKVKSGK | soluble |
| AETSSATTAQQMPSLAPMLEKVMPSVVSINVEGSTTVNTPRMPRNFQQFFGDDSPFCQEGSPFQSSPFCQGGQGGNGGGQQQKFMALGSGVIIDADKGYVVTNNHVVDNATVIKVQLSDGRKFDAKMVGKDPRSDIALIQIQNPKNLTAIKMADSDALRVGDYTVAIGNPFGLGETVTSGIVSALGRSGLNAENYENFIQTDAAINRGNSGGALVNLNGELIGINTAILAPDGGNIGIGFAIPSNMVKNLTSQMVEYGQVKRGELGIMGTELNSELAKAMKVDAQRGAFVSQVLPNSSAAKAGIKAGDVITSLNGKPISSFAALRAQVGTMPVGSKLTLGLLRDGKQVNVNLELQQSSQNQVDSSSIFNGIEGAEMSNKGKDQGVVVNNVKTGTPAAQIGLKKGDVIIGANQQAVKNIAELRKVLDSKPSVLALNIQRGDSTIYLLMQ | soluble |
| AGHMVSCCYRSLAAPDLTLRDLLDIVETSQAHNARAQLTGALFYSQGVFFQWLEGRPAAVAEVMTHIQRDRRHSNVEILAEEPIAKRRFAGWHMQLSCSEADMRSLGLAESRQIVTVGRSL | soluble |
| AGLENTDHTNNEHRLTQLLSIAEECETLDRLKQLVDSGRIFTAYNGFEPSGRIHIAQALITVMNTNNMIECGGQMIIYIADWFAKMNLKMNGDINKIRELGRYFIEVFKACGINLDGTRFIWASEFIASNPSYIERMLDIAEFSTISRVKRCCQIMGRNESDCLKASQIFYPCMQAADVFELVPEGIDICQLGIDQRKVNMLAIEYANDRGLKIPISLSHHMLMSLSGPKKKMSKSDPQGAIFMDDTEQEVSEKISRAYCTDETFDNPIFEYIKYLLLRWFGTLNLCGKIYTDIESIQEDFSSMNKRELKTDVANYINTIIDLVREHFKKPELSELLSNVKSYQQPSK | soluble |
| AGQCSQNEYFDSLLHACIPCQLRCSSNTPPLTCQRYCNASVTNSVKG | soluble |
| AGQFGTDYNAAIKVDTQTEFCGYVGTKGSSSVAAMFVEGNEVDSLSAGDKAIIVLGETPFYAESGGQCGDAGEIRTEAGVFRVEDTQKLGNAIAHHGVMAEGVLAKGDEVATIVDAERRAAISLN | not soluble |

— the DeepSol protein solubility set
